Experimental data from PMC5341616 (Biochemistry and Biophysics Reports, 2017).

How the values were obtained:
[1] = target: PLIC-2 UBL domain UBLN2 1-107 (human, UniProt Q9UHD9 1-107); test: NMR titration
Ubiquitin = Ubiquitin (UniProt P0CG48 1-76); test: NMR titration

Sequence of PLIC-2 UBL domain UBLN2 1-107 (Q9UHD9 1-107): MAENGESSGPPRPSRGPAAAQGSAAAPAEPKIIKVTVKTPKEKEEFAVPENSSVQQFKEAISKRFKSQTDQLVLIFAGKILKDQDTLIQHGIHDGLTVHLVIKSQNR

Kd [1]: 175 ± 25 µM
Kd (Ubiquitin): 8.1 ± 1.5 µM
Binder: PEVRFQQQLEQLNAMGFLNREANLQALIATGGDINAAIERLLGSQPS (domain or fragment, human, UniProt Q9UHD9 578-624, looked up) [PLIC-2 UBA domain UBLN2 578-624]
